Entries after “also recorded” stand apart in the source; their conditions may differ. Where two headings read alike, the source gives them in different places.
Key:
P. aeruginosa = assay: MIC, modified CLSI broth microdilution in CAA medium without or with […] human serum (Table 4); assay type: cell-based, Pseudomonas aeruginosa; as to CAA/HuS MIC: CAA supplemented with 2.5% human serum
Description: 2015. […] Clinical and Laboratory Standards Institute, Wayne, Pa.

[1] = test system: biofilms formed by P. aeruginosa strain ATCC 17646; conditions: strain ATCC 17646 biofilm
Experimental: Biofilms are then washed and treated with e.g., a 2-fold dilution series of the lysin in TSBg at e.g., 37° C. for 24 hours. After treatment, wells are washed, air-dried at e.g., 37° C. and stained with e.g., 0.05% crystal violet for 10 minutes.

[2] = test system: Pseudomonas aeruginosa strain CFS-1292 (meropenem resistant); assay: MIC in 25% CAA alone, with […] human serum or […] SURVANTA (Table 13); assay type: cell-based
Experimental: Materials and methods: MICs were determined by broth microdilution in media supplemented with human serum and pulmonary surfactant ([…]®; Myoderm Clinical Supplies). Minimal biofilm eradicating concentrations (MBECs) were determined using standard methods. […] Fluorescence microscopy was performed after LIVE/DEAD staining (ThermoFisher) and TEM was performed.

[3] = test system: P. aeruginosa PA20 recovered from rabbit lung homogenates; assay type: cell-based, Pseudomonas aeruginosa; conditions: for number of isolates with GN370 MIC 1 μg/mL / number of isolates with GN370 MIC 2 μg/mL: n=48
[4] = test system: P. aeruginosa isolate CFS 1558 (PA20); assay type: in vivo; conditions: for Log10 CFU/g of vegetation: rabbit lung
Experimental: A rabbit pulmonary model was used to assess the efficacy of the GN370 lysin alone and in combination with an antibiotic (meropenem). Initially, rabbits were infected intratracheally with P. aeruginosa isolate CFS 1558 (PA20) (3×10^9 CFU). Treatment commenced 6 hours post-infection.

P. aeruginosa (PA20) = assay: Rabbit infective endocarditis model (Tables 28-32, FIGS. 5-8); assay type: in vivo, Pseudomonas aeruginosa in rabbits
Experimental: Initially, a polyethylene catheter was placed into the rabbits' right ventricle and secured. 48 hours after catheter placement, rabbits were infected intravenously with P. aeruginosa (PA20) (6×10^9 CFU/mL). Treatment commenced 24 hours post-infection.
Data were analyzed using the Kruskal-Wallis method for multiple comparison and then adjusted with a false discovery rate approach (Benjamini-Hochberg method), using StatsDirect Software. A p-value of <0.05 was considered statistically significant.

[5] = test system: 15 P. aeruginosa isolates; assay: MIC of GN370 in dog, human, rabbit and rat serum and CAAT; meropenem in CAMHB (Table 33); assay type: cell-based, Pseudomonas aeruginosa; conditions: for MIC90: 15 isolates; for MIC GN370: diluted CAAT media
[6] = isolates from GN370 (3 mg/kg) + Meropenem (20 mg/kg) group
[7] = isolates from GN370 (30 mg/kg) + Meropenem (20 mg/kg) group
[8] = isolates from GN370 (30 mg/kg) group
[9] = isolates from Vehicle control group
[10] = single dose of GN370 + meropenem

B1: GN370: lysin-AMP construct: MIDR, FIRL and NPTH moieties N-terminal to GN202 lysin (SEQ ID NO: 44) (protein)
chain: MIDRFIRLNPTHGPRRPRRPGRRAPVRTSQRGIDLIKSFEGLRLSAYQDSVGVWTIGYGTTRGVTRYMTITVEQAERMLSNDIQRFEPELDRLAKVPLNQNQWDALMSFVYNLGAANLASSTLLDLLNKGDYQGAADQFPHWVNAGGKRLDGLVKRRAAERALFLEPLS
CAA MIC (P. aeruginosa; CAA medium, no human serum): 16000 µg/mL | CAA/HuS MIC (P. aeruginosa; CAA supplemented with […] human serum): 4000 µg/mL | MBEC [1]: 1 µg/mL | MIC in […] Survanta [2]: 2 µg/mL | MIC in human serum ([…]) in CAA [2]: 2 µg/mL | activity in human serum and pulmonary surfactant [2]: active in human serum and pulmonary surfactant | 25% CAA MIC ([2]; media alone): 4 | ex vivo resistance / increase in MIC of isolates recovered from rabbit lung ([3]; all treatment groups of the rabbit pulmonary model): not observed; also recorded: no increase in MIC | number of isolates with GN370 MIC 1 μg/mL [3, 6]: 34 | number of isolates with GN370 MIC 2 μg/mL [3, 6]: 14 | number of isolates with GN370 MIC 2 μg/mL ([3]; isolates from GN370 (3 mg/kg) group): 16 | number of isolates with GN370 MIC 1 μg/mL ([3]; isolates from GN370 (10 mg/kg) + Meropenem (20 mg/kg) group): 48 | number of isolates with GN370 MIC 2 μg/mL ([3]; isolates from GN370 (10 mg/kg) group): 16 | number of isolates with GN370 MIC 1 μg/mL [3, 7]: 35 | number of isolates with GN370 MIC 2 μg/mL [3, 7]: 13 | number of isolates with GN370 MIC 1 μg/mL [3, 8]: 16 | number of isolates with GN370 MIC 2 μg/mL [3, 8]: 32 | number of isolates with GN370 MIC 2 μg/mL ([3]; isolates from Meropenem (20 mg/kg) group): 16 | number of isolates with GN370 MIC 2 μg/mL ([3]; isolates from Pre-treatment control group): 48 | number of isolates with GN370 MIC 1 μg/mL [3, 9]: 13 | number of isolates with GN370 MIC 2 μg/mL [3, 9]: 35 | Bacterial burden, Kidneys ([4]; GN370 3 mg/kg): 5.06 ± 1.05 log10 CFU/g | Bacterial burden, Lung 1 ([4]; GN370 3 mg/kg): 6.28 ± 1.12 log10 CFU/g | Bacterial burden, Lung 2 ([4]; GN370 3 mg/kg): 6.43 ± 1.01 log10 CFU/g | Bacterial burden, Spleen ([4]; GN370 3 mg/kg): 5.23 ± 1.25 log10 CFU/g | Bacterial burden, Kidneys ([4]; GN370 10 mg/kg): 3.46 ± 0.78 log10 CFU/g | Bacterial burden, Lung 1 ([4]; GN370 10 mg/kg): 6.63 ± 1.00 log10 CFU/g | Bacterial burden, Lung 2 ([4]; GN370 10 mg/kg): 5.53 ± 1.75 log10 CFU/g | Bacterial burden, Spleen ([4]; GN370 10 mg/kg): 3.76 ± 0.44 log10 CFU/g | reduction in CFUs in the lungs ([4]; GN370 alone, increasing concentrations, compared to pretreatment control): 4 log10 | additional decrease of bacterial density in lung, kidney and spleen ([4]; GN-370 (10 mg/kg) in addition to meropenem, compared to meropenem or GN-370 alone): 2 log10 CFU/g | decrease of mean bacterial density in lungs ([4]; agent alone, compared to the starting CFU and the vehicle control group): about 2 log10 CFU/g | Log10 CFU/g of vegetation ([4]; GN370 3 mg/kg): 6.52 ± 1.01 Log10 CFU/g | Log10 CFU/g of vegetation ([4]; GN370 10 mg/kg): 6.25 ± 1.35 Log10 CFU/g | Log10 CFU/g of vegetation ([4]; GN370 30 mg/kg): 7.88 ± 0.50 Log10 CFU/g | tolerability in infected rabbits ([4]; tested doses): well tolerated at the tested doses | survival until the end of the study ([4]; treated infected rabbits): all treated infected animals survived until the end of the study | change of cardiac vegetations counts vs untreated controls (P. aeruginosa (PA20); meropenem + 3 mg/kg GN370): −1.3 log10 CFU/g | change of cardiac vegetations counts vs vehicle-treated controls (P. aeruginosa (PA20); meropenem + 3 mg/kg GN370): −0.8 log10 CFU/g | change of cardiac vegetations counts vs untreated controls (P. aeruginosa (PA20); meropenem + 10 mg/kg GN370): −1.1 log10 CFU/g | change of cardiac vegetations counts vs vehicle-treated controls (P. aeruginosa (PA20); meropenem + 10 mg/kg GN370): −0.5 log10 CFU/g | P. aeruginosa densities in kidney, spleen and lung vs meropenem alone (P. aeruginosa (PA20); meropenem + GN370 at all doses): −0.6 to−2.2 log10 CFU/g | P. aeruginosa densities in kidney, spleen and lung vs untreated control (P. aeruginosa (PA20); meropenem + GN370 at all doses): −2.0 to−3.6 log10 CFU/g | P. aeruginosa densities in kidney, spleen and lung vs vehicle (P. aeruginosa (PA20); meropenem + GN370 at all doses): −1.7 to−3.2 log10 CFU/g | CFU reduction in cardiac vegetation tissues (P. aeruginosa (PA20); [10]): about 1 log kill | CFU reduction in kidney, spleen and lung tissues (P. aeruginosa (PA20); [10]): about 3 log kill | CFU reduction in cardiac vegetations (P. aeruginosa (PA20); three days of GN370 at 10 mg/kg + 5 mg/kg meropenem, compared to both the start of treatment and a vehicle control): > 2 log CFU | MIC90 ([5]; dog serum): 4 µg/mL | MIC90 ([5]; human serum): 2 µg/mL | MIC90 ([5]; rabbit serum): 2 µg/mL | MIC90 ([5]; rat serum): 32 µg/mL | MIC GN370 ([5]; strain AR0231): 2 µg/mL | Serum MIC Dog ([5]; strain AR0231, dog serum): 2 µg/mL | Serum MIC Human ([5]; strain AR0231, human serum): 1 µg/mL | Serum MIC Rabbit ([5]; strain AR0231, rabbit serum): 1 µg/mL | Serum MIC Rat ([5]; strain AR0231, rat serum): 16 µg/mL | MIC GN370 ([5]; strain AR0241): 2 µg/mL | Serum MIC Dog ([5]; strain AR0241, dog serum): 1 µg/mL | Serum MIC Human ([5]; strain AR0241, human serum): 1 µg/mL | Serum MIC Rabbit ([5]; strain AR0241, rabbit serum): 1 µg/mL | Serum MIC Rat ([5]; strain AR0241, rat serum): 32 µg/mL | MIC GN370 ([5]; strain AR0246): 1 µg/mL | Serum MIC Dog ([5]; strain AR0246, dog serum): 4 µg/mL | Serum MIC Human ([5]; strain AR0246, human serum): 2 µg/mL | Serum MIC Rabbit ([5]; strain AR0246, rabbit serum): 2 µg/mL | Serum MIC Rat ([5]; strain AR0246, rat serum): 32 µg/mL | MIC GN370 ([5]; strain ATCC 25668): 0.5 µg/mL | Serum MIC Dog ([5]; strain ATCC 25668, dog serum): 2 µg/mL | Serum MIC Human ([5]; strain ATCC 25668, human serum): 1 µg/mL | Serum MIC Rabbit ([5]; strain ATCC 25668, rabbit serum): 2 µg/mL | Serum MIC Rat ([5]; strain ATCC 25668, rat serum): 16 µg/mL | MIC GN370 ([5]; strain ATCC 27853): 1 µg/mL | Serum MIC Dog ([5]; strain ATCC 27853, dog serum): 2 µg/mL | Serum MIC Human ([5]; strain ATCC 27853, human serum): 1 µg/mL | Serum MIC Rabbit ([5]; strain ATCC 27853, rabbit serum): 2 µg/mL | Serum MIC Rat ([5]; strain ATCC 27853, rat serum): 32 µg/mL | MIC GN370 ([5]; strain PA1): 0.5 µg/mL | Serum MIC Dog ([5]; strain PA1, dog serum): 1 µg/mL | Serum MIC Human ([5]; strain PA1, human serum): 2 µg/mL | Serum MIC Rabbit ([5]; strain PA1, rabbit serum): 2 µg/mL | Serum MIC Rat ([5]; strain PA1, rat serum): 16 µg/mL | MIC GN370 ([5]; strain PA2): 0.5 µg/mL | Serum MIC Dog ([5]; strain PA2, dog serum): 1 µg/mL | Serum MIC Human ([5]; strain PA2, human serum): 1 µg/mL | Serum MIC Rabbit ([5]; strain PA2, rabbit serum): 2 µg/mL | Serum MIC Rat ([5]; strain PA2, rat serum): 16 µg/mL | MIC GN370 ([5]; strain PA3): 1 µg/mL | Serum MIC Dog ([5]; strain PA3, dog serum): 2 µg/mL | Serum MIC Human ([5]; strain PA3, human serum): 2 µg/mL | Serum MIC Rabbit ([5]; strain PA3, rabbit serum): 2 µg/mL | Serum MIC Rat ([5]; strain PA3, rat serum): 16 µg/mL | MIC GN370 ([5]; strain PA19): 1 µg/mL | Serum MIC Dog ([5]; strain PA19, dog serum): 1 µg/mL | Serum MIC Human ([5]; strain PA19, human serum): 0.5 µg/mL | Serum MIC Rabbit ([5]; strain PA19, rabbit serum): 0.5 µg/mL | Serum MIC Rat ([5]; strain PA19, rat serum): 32 µg/mL | MIC GN370 ([5]; strain PA20): 1 to 2 µg/mL | Serum MIC Dog ([5]; strain PA20, dog serum): 2 µg/mL | Serum MIC Human ([5]; strain PA20, human serum): 1 µg/mL | Serum MIC Rabbit ([5]; strain PA20, rabbit serum): 2 µg/mL | Serum MIC Rat ([5]; strain PA20, rat serum): 32 µg/mL | MIC GN370 ([5]; strain PA22): 2 µg/mL | Serum MIC Dog ([5]; strain PA22, dog serum): 2 µg/mL | Serum MIC Human ([5]; strain PA22, human serum): 2 µg/mL | Serum MIC Rabbit ([5]; strain PA22, rabbit serum): 2 µg/mL | Serum MIC Rat ([5]; strain PA22, rat serum): 32 µg/mL | MIC GN370 ([5]; strain PA23): 2 µg/mL | Serum MIC Dog ([5]; strain PA23, dog serum): 2 µg/mL | Serum MIC Human ([5]; strain PA23, human serum): 1 µg/mL | Serum MIC Rabbit ([5]; strain PA23, rabbit serum): 2 µg/mL | Serum MIC Rat ([5]; strain PA23, rat serum): 32 µg/mL | MIC GN370 ([5]; strain PA24): 1 µg/mL | Serum MIC Dog ([5]; strain PA24, dog serum): 4 µg/mL | Serum MIC Human ([5]; strain PA24, human serum): 2 µg/mL | Serum MIC Rabbit ([5]; strain PA24, rabbit serum): 2 µg/mL | Serum MIC Rat ([5]; strain PA24, rat serum): 16 µg/mL | MIC GN370 ([5]; strain PA27): 0.5 µg/mL | Serum MIC Dog ([5]; strain PA27, dog serum): 2 µg/mL | Serum MIC Human ([5]; strain PA27, human serum): 2 µg/mL | Serum MIC Rabbit ([5]; strain PA27, rabbit serum): 2 µg/mL | Serum MIC Rat ([5]; strain PA27, rat serum): 16 µg/mL | MIC GN370 ([5]; strain PA453): 0.5 µg/mL | Serum MIC Dog ([5]; strain PA453, dog serum): 0.5 µg/mL | Serum MIC Human ([5]; strain PA453, human serum): 0.5 µg/mL | Serum MIC Rabbit ([5]; strain PA453, rabbit serum): 0.5 µg/mL | Serum MIC Rat ([5]; strain PA453, rat serum): 32 µg/mL
